According to patent US5885811A, “Leader sequence inducing a post-translational modification of polypeptides in bacteria gene therefor and subtilin variant of enhanced stability and activity” (University of Maryland, priority 1995, dated 1999):

Assays:
[1] = format: physicochemical
Description: Measurement of chemical stability of DHA5. The dehydro residues of nisin and subtilin have vinyl protons that give well-separated resonances in the proton NMR spectrum, Liu and Hansen, Appl. Environ. Microbiol., 56, p. 251 (1990). The areas of the vinyl proton peaks in the NMR spectrum were measured, and chemical modification of DHA5 over time was taken as the decrease in peak area of the DHA5 vinyl protons in subtilin and in E4I-subtilin as compared to zero time. Proton NMR spectra were obtained using a Bruker AMX-500 NMR spectrometer. The spectra were obtained at a constant temperature of 295K, using selective solvent suppression.
Chemical and biological stability of natural subtilin. The natural producer of subtilin is B. subtilis ATCC 6633. […] These dissolved samples were incubated at room temperature, and from time to time, the NMR spectrum of the one sample and the biological activity of the other sample against Bacillus cereus spores were determined. […]
E4I-subtilin has enhanced chemical and biological stability. The central design strategy in the construction of a stable mutant of subtilin was based on the idea that the chemical and biological stabilities of subtilin are determined by the chemical reactivity of DHA5; and that DHA5 in natural subtilin is unstable because the Glu4 carboxyl participates in its chemical modification (FIG. 7). […]

[2] = test system: Bacillus cereus T spores; assay: Spore outgrowth liquid assay (amount required to inhibit spore outgrowth during 3 hour assay); format: cell-based
Description: (§1) Measurement of biological stability of subtilin. Biological activity against Bacillus cereus spores was measured by a liquid assay in which various concentrations of subtilin were added to a suspension of Bacillus cereus T spores in 15 ml polypropylene tubes, and inhibitory effects were evaluated by phase-contrast microscopy as described previously (Morris et al, J. Biol. Chem., 259, 13590-13594 (1984) and Appl. Environ. Microbiol., 42, 958-962 (1981)). The amount of subtilin required to inhibit spore outgrowth during the 3 hour assay period was used as a measure of antimicrobial activity. Relative amounts of subtilin were estimated from the area of the subtilin peak (measured at 254 nm) that eluted from the C-18 analytical HPLC column during purification. The amounts were converted to molar quantities of subtilin by comparing the peak area of subtilin with that of a known molar quantity of a nisin standard (21). For this purpose, the extinction coefficients of nisin and subtilin at 254 nm were assumed to be the same, in that absorbance at this wavelength is mainly due to the same three dehydro residues present in both peptides. The biological activity against Bacillus cereus spores of the E4I-subtilinmutant was determined in the same way as for natural subtilin.
E4I-subtilin has enhanced specific activity. […]

[3] = test system: Bacillus cereus spores; assay: Biological stability: activity against Bacillus cereus spores over time of incubation; format: cell-based; details: 50 mM NaPi pH 6.8, room temperature, compared with DHA5 disappearance
Description: as §1
Chemical and biological stability of natural subtilin. The natural producer of subtilin is B. subtilis ATCC 6633. […]

[4] = reported; cited from earlier work

| Structure (SMILES) | increase in chemical and biological stability relative to natural subtilin [1] [fold] | t1/2 of chemical modification (disappearance) of DHA5, first-order ([1]; aqueous solution (D2O) pH 6.8, room temperature, NMR at 295K) [h] | concentration showing inhibition of spore outgrowth [2] | concentration showing inhibition of spore outgrowth (molar) [2] [nM] | loss of biological activity against Bacillus cereus spores during incubation [3] | light sensitivity [4] |
| --- | --- | --- | --- | --- | --- | --- |
| C=C(NC(=O)[C@@H](NC(=O)[C@H](CCCCN)NC(=O)[C@@H]1CSC(C)[C@H]2NC(=O)[C@H](CC(C)C)NC(=O)[C@H](NC(=O)[C@H](CCC(N)=O)NC(=O)[C@H](CC(C)C)NC(=O)[C@H](Cc3ccccc3)NC(=O)[C@@H]3CSC(C)[C@@H](NC(=O)[C@@H](NC(=O)[C@@H]4CSC(C)[C@@H](NC(=O)[C@@H]5CSC[C@@H](NC(=O)[C@H](CCCCN)NC(=O)[C@@H](N)Cc6c[nH]c7ccccc67)C(=O)N[C@@H]([C@@H](C)CC)C(=O)NC(=C)C(=O)N[C@@H](CC(C)C)C(=O)N5)C(=O)N5CCC[C@H]5C(=O)NCC(=O)N4)C(C)C)C(=O)NCC(=O)N[C@@H](C)C(=O)N[C@@H](CC(C)C)C(=O)N[C@@H](CCC(N)=O)C(=O)NC(=CC)C(=O)N3)C(C)SC[C@H](NC2=O)C(=O)N[C@@H](CC(N)=O)C(=O)N1)[C@@H](C)CC)C(=O)N[C@@H](CCCCN)C(=O)O (stereo partly drawn) [E4I-subtilin] | 57 |  |  |  |  |  |
| C=C1NC(=O)CC[C@@H](C(=O)O)NC(=O)[C@H](NC(=O)[C@H](CCCCN)NC(=O)[C@@H](N)Cc2c[nH]c3ccccc23)CSC[C@@H](C(=O)N[C@@H]2C(=O)N3CCC[C@H]3C(=O)NCC(=O)N[C@H](C(=O)N[C@H](C(=O)N[C@@H]3C(=O)NCC(=O)N[C@@H](C)C(=O)N[C@@H](CC(C)C)C(=O)N[C@@H](CCC(N)=O)C(=O)N/C(=C/C)C(=O)N[C@H](C(=O)N[C@@H](Cc4ccccc4)C(=O)N[C@@H](CC(C)C)C(=O)N[C@@H](CCC(N)=O)C(=O)N[C@@H]4C(=O)N[C@@H](CC(C)C)C(=O)N[C@H]5C(=O)N[C@@H](CSC4C)C(=O)NC(=O)[C@H](CC(N)=O)N[C@H](C(=O)N[C@@H](CCCCN)C(=O)N[C@H](C(=O)NC(=C)C(=O)N[C@@H](CCCCN)C(=O)O)[C@@H](C)CC)CSC5C)CSC3C)C(C)C)CSC2C)N[C@@H](CC(C)C)C(=O)NC1=O (stereo partly drawn) [subtilin] |  | 19 | about 1 μg per ml | ~280 | dropped at approximately this same rate | light-sensitive |
